Columns and labels:
Assay in all cases: cell-based or functional assay
[1] = biological target: HIV-1 Env of pseudovirus MGRM-AE-002 (clade CRF01_AE) (HIV-1)
[2] = biological target: HIV-1 Env of isolate APV_6, clade B, on pseudovirus (HIV-1)
[3] = biological target: HIV-1 Env of pseudovirus MGRM-Chronic-B-023 (HIV-1)
[4] = biological target: HIV-1 Env of pseudovirus MGRM-G-014 (HIV-1, clade G isolate MGRM-G-014)
[5] = biological target: HIV-1 94UG103 envelope glycoprotein (Env) on pseudovirus (HIV-1)
[6] = biological target: HIV-1 Env of isolate MGRM-G-014 (HIV-1)
[7] = biological target: HIV-1 Env of isolate MGRM-D-018 (clade D), on pseudovirus (HIV-1)
[8] = biological target: HIV-1 92RW020 envelope glycoprotein (Env) on pseudovirus (HIV-1)
[9] = biological target: HIV-1 Env of isolate 98CN009 (CRF07 BC) (HIV-1 isolate 98CN009)
[10] = biological target: HIV-1 93IN905 Env (pseudovirus, clade C) (HIV-1)
[11] = biological target: HIV-1 Env of isolate PVO.4 (Acute), clade B, on pseudovirus (HIV-1)
[12] = biological target: HIV-1 envelope glycoprotein (Env) of isolate MGRM-A-003, clade A (HIV-1)
[13] = biological target: HIV-1 JRCSF envelope glycoprotein (Env) on pseudovirus (HIV-1) (UniProt P20871)
[14] = biological target: HIV-1 Env of isolate MGRM-D-004 (clade D pseudovirus) (HIV-1)
[15] = biological target: HIV-1 envelope glycoprotein (Env) of isolate MGRM-A-014, clade A (HIV-1)
[16] = biological target: HIV-1 Env of isolate 92UG024 (clade D), on pseudovirus (HIV-1)
[17] = biological target: HIV-1 MGRM-C-027 Env (pseudovirus, clade C) (HIV-1)
[18] = biological target: HIV-1 MGRM-C-028 Env (pseudovirus, clade C) (HIV-1)
[19] = biological target: HIV-1 Env of pseudovirus MGRM-F1-010 (HIV-1)
[20] = biological target: HIV-1 Env of isolate MGRM-Chronic-B-023 (subtype B pseudovirus) (HIV-1)
[21] = biological target: HIV-1 Env of isolate MGRM-D-001 (pseudovirus) (HIV-1)
[22] = biological target: HIV-1 Env of isolate SC422661.8 (subtype B pseudovirus) (HIV-1)
[23] = biological target: HIV-1 Env of isolate MGRM-F1-017 (HIV-1)
[24] = biological target: HIV-1 Env of isolate 92UG114 (pseudovirus) (HIV-1)
[25] = biological target: HIV-1 Env of isolate MGRM-F1-023 (HIV-1)
[26] = biological target: HIV-1 Env of isolate MGRM-F1-014 (HIV-1)
[27] = biological target: HIV-1 93UG077 Env (pseudovirus) (HIV-1)
[28] = biological target: HIV-1 Env of isolate MGRM-AG-005 (clade AG), on pseudovirus (HIV-1)
[29] = biological target: HIV-1 JRFL Env (pseudovirus) (HIV-1)
[30] = biological target: HIV-1 Env of isolate MGRM-AE-004 (subtype AE) (HIV-1)
[31] = biological target: HIV-1 Env of isolate VLGCA1 (subtype A) (HIV-1)
[32] = biological target: HIV-1 Env of isolate 92UG037 (HIV-1)
[33] = biological target: HIV-1 Env of isolate 92WR026 (HIV-1)
[34] = biological target: HIV-1 Env of isolate TRO.11 (subtype B) (HIV-1)
[35] = biological target: HIV-1 Env of isolate 92WR020 (HIV-1)
[36] = biological target: HIV-1 Env of isolate APV-6 (HIV-1)
[37] = biological target: HIV-1 Env of isolate 92UG001 (HIV-1)
[38] = biological target: HIV-1 Env of isolate 97ZA012 (subtype C) (HIV-1)
[39] = biological target: HIV-1 Env of isolate MGRM-Chronic-B-024 (subtype B) (HIV-1)
[40] = biological target: HIV-1 envelope glycoprotein (Env) of isolate MGRM-C-014 (HIV-1)

Chain of 5345_I01 (PGT-137) (antibody) (VH): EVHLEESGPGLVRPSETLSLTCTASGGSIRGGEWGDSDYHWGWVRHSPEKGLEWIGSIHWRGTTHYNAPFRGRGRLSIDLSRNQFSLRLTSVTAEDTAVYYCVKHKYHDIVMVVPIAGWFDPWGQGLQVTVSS
Chain of 5345_I01 (PGT-137) (antibody) (VL): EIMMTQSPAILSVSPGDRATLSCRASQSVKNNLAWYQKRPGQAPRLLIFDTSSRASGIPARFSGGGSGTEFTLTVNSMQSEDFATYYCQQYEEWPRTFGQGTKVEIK
Chain of 4993_K13 (PGT-141) (antibody) (VH): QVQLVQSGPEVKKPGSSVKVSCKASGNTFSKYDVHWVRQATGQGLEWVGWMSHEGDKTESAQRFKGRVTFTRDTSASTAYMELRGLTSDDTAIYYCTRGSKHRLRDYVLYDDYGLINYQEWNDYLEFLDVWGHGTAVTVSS
Chain of 4993_K13 (PGT-141) (antibody) (VL): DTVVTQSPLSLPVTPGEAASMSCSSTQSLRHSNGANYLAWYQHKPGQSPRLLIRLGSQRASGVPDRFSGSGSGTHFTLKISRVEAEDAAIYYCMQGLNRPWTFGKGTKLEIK
Chain of 5329_C19 (PGT-136) (antibody) (VH): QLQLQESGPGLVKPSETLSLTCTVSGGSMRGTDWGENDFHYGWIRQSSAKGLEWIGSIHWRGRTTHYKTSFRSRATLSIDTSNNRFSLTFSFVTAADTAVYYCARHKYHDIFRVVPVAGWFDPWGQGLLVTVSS
Chain of 5329_C19 (PGT-136) (antibody) (VL): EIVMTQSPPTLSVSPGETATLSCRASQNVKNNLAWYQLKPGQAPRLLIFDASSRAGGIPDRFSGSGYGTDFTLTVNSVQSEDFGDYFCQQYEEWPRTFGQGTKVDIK
Chain of 4995_E20 (PGT-142) (antibody) (VH): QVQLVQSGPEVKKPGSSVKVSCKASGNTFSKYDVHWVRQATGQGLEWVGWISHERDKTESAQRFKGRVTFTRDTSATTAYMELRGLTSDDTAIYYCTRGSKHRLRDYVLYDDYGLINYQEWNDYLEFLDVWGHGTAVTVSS
Chain of 4970_K22 (PGT-144) (antibody) (VH): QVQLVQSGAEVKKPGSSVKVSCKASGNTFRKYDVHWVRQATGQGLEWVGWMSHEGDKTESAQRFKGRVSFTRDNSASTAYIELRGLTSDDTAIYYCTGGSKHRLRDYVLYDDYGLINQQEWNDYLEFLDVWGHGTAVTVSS
Chain of 4970_K22 (PGT-144) (antibody) (VL): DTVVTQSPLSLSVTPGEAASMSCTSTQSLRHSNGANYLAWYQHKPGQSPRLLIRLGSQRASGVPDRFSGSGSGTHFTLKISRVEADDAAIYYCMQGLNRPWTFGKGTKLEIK
Chain of 4980_N08 (PGT-143) (antibody) (VH): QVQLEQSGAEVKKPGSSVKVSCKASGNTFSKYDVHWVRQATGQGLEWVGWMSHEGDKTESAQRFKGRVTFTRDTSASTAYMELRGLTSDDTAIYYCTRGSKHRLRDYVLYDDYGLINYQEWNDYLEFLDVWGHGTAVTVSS
Chain of 4980_N08 (PGT-143) (antibody) (VL): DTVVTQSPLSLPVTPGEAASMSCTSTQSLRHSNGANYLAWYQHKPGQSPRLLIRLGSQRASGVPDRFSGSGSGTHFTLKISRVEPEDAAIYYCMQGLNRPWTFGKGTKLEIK

Substance | IC50 (µg/mL), pseudovirus neutralization [6] | IC50, pseudovirus neutralization [7] | IC50 neutralization [10] | IC50, pseudovirus neutralization [16] | IC50 neutralization [17] | IC50 neutralization [18] | IC50 (neutralizing activity, pseudovirus) [27] | IC50 (µg/mL), pseudovirus neutralization [30] | IC50 (neutralizing activity, pseudovirus) [29] | IC50 (µg/mL), pseudovirus neutralization [31] | IC50 [32] | IC50 [33] | IC50 neutralization [34] | IC50 [35] | neutralization IC50 [36] | IC50 (µg/mL), pseudovirus neutralization [37] | IC50 neutralization [38] | IC50 neutralization [39] | IC50 (µg/mL), pseudovirus neutralization [40] | also measured
1496_C09 (PG9) (TCN-109) (antibody) | 16.5 µg/mL | 0.0444 µg/mL | 0.048 µg/mL | 1.91 µg/mL | 2.45 µg/mL | 0.121 µg/mL |  |  |  |  |  |  |  |  |  |  |  |  |  | IC50 [1]: 0.04 µg/mL; IC50 (µg/ml), pseudovirus neutralization [2]: 0.12 µg/mL; IC50 (µg/ml), pseudovirus neutralization [3]: 0.04 µg/mL; IC50 (µg/ml), pseudovirus neutralization [4]: 6.32 µg/mL; IC50, pseudovirus neutralization [5]: 0.173 µg/mL; IC50, pseudovirus neutralization [8]: 0.0637 µg/mL; IC50 (µg/ml), pseudovirus neutralization [9]: 1.07 µg/mL; IC50 (µg/ml), pseudovirus neutralization [11]: 4.01 µg/mL; IC50 (µg/ml), pseudovirus neutralization [12]: 0.65 µg/mL; IC50, pseudovirus neutralization [13]: < 0.0025 µg/mL; IC90 (pseudovirus neutralization) [13]: < 0.0025 µg/mL; IC50 (µg/ml), pseudovirus neutralization [14]: 0.03 µg/mL; IC50 (µg/ml), pseudovirus neutralization [15]: 0.62 µg/mL; IC50 (µg/mL), pseudovirus neutralization [16]: 1.86 µg/mL; IC50 (µg/ml), pseudovirus neutralization [19]: 0.03 µg/mL
4838_L06 (PGT-121) (antibody) |  |  |  | > 10 µg/mL |  |  |  |  |  |  |  |  |  |  |  |  |  |  |  | IC50 (µg/mL), pseudovirus neutralization [20]: 0.005 µg/mL; IC50, pseudovirus neutralization [21]: 0.615 µg/mL; IC50 (µg/mL), pseudovirus neutralization [22]: 0.098 µg/mL; IC50 (µg/mL), pseudovirus neutralization [23]: 16.9 µg/mL; IC50, pseudovirus neutralization [24]: 0.004 µg/mL; IC50 (µg/mL), pseudovirus neutralization [25]: 0.097 µg/mL
4877_D15 (PGT-122) (antibody) |  | 0.0115 µg/mL | 0.0138 µg/mL | > 10 µg/mL | 0.0388 µg/mL | 2.06 µg/mL |  |  |  |  |  |  |  |  |  |  |  |  |  | IC50 (µg/mL), pseudovirus neutralization [26]: 0.195 µg/mL; IC50 (µg/mL), pseudovirus neutralization [20]: 0.01 µg/mL; neutralization IC50 (pseudovirus) [27]: 0.191 µg/mL; IC50, pseudovirus neutralization [21]: 1.13 µg/mL; IC50, pseudovirus neutralization [28]: > 10 µg/mL; IC50 (µg/mL), pseudovirus neutralization [22]: 0.103 µg/mL; neutralization IC50 (pseudovirus) [29]: 0.0471 µg/mL; IC50 (µg/mL), pseudovirus neutralization [23]: > 50 µg/mL; IC50, pseudovirus neutralization [24]: 0.011 µg/mL; IC50 (µg/mL), pseudovirus neutralization [25]: 0.154 µg/mL
4970_K22 (PGT-144) (antibody) | 0.562 µg/mL |  |  |  |  |  | > 10 µg/mL | 0.104 µg/mL | > 10 µg/mL | > 50 µg/mL |  |  |  |  |  |  |  |  |  | 
4980_N08 (PGT-143) (antibody) | 0.107 µg/mL |  |  |  |  |  | > 10 µg/mL | 0.002 µg/mL | > 10 µg/mL | 17.4 µg/mL |  |  |  |  |  |  |  |  |  | 
4993_K13 (PGT-141) (antibody) | 0.222 µg/mL |  |  |  |  |  | > 10 µg/mL | 0.001 µg/mL | > 10 µg/mL | 2.07 µg/mL |  |  |  |  |  |  |  |  |  | 
4995_E20 (PGT-142) (antibody) | 0.076 µg/mL |  |  |  |  |  | > 10 µg/mL | 0.001 µg/mL | > 10 µg/mL | 2.75 µg/mL |  |  |  |  |  |  |  |  |  | 
5114_A19 (PGT-128) (antibody) |  |  |  |  |  |  |  | > 50 µg/mL |  | 0.838 µg/mL | 0.006 µg/mL | 0.01 µg/mL | 0.018 µg/mL | 0.005 µg/mL | 0.007 µg/mL | > 50 µg/mL | 0.019 µg/mL | > 50 µg/mL | > 50 µg/mL | 
5136_H01 (PGT-131) (antibody) |  |  |  |  |  |  |  | > 50 µg/mL |  | > 50 µg/mL | 0.048 µg/mL | 0.041 µg/mL | 1.91 µg/mL | 0.168 µg/mL | > 50 µg/mL | > 50 µg/mL | 1.81 µg/mL | > 50 µg/mL | > 50 µg/mL | 
5145_B14 (PGT-127) (antibody) |  |  |  |  |  |  |  |  |  |  |  |  |  |  |  |  |  |  |  | IC50 (µg/mL), pseudovirus neutralization [26]: > 50 µg/mL; IC50 (µg/mL), pseudovirus neutralization [20]: > 50 µg/mL; IC50, pseudovirus neutralization [21]: 2.23 µg/mL; IC50 (µg/mL), pseudovirus neutralization [22]: 36.7 µg/mL; IC50 (µg/mL), pseudovirus neutralization [23]: > 50 µg/mL; IC50, pseudovirus neutralization [24]: 7.09 µg/mL; IC50 (µg/mL), pseudovirus neutralization [25]: 0.119 µg/mL
5147_N06 (PGT-130) (antibody) |  | 0.0378 µg/mL | 0.0182 µg/mL | > 10 µg/mL | 0.0052 µg/mL | > 10 µg/mL |  | 2.43 µg/mL |  | > 50 µg/mL | 0.061 µg/mL | 0.037 µg/mL | 0.257 µg/mL | 0.039 µg/mL | > 50 µg/mL | > 50 µg/mL | 1.32 µg/mL | 5.78 µg/mL | > 50 µg/mL | Neutralization by PGT-130, IC50 [27]: > 10 µg/mL; Neutralization by PGT-130, IC80 [27]: > 10 µg/mL; Neutralization by PGT-130, IC90 [27]: > 10 µg/mL; Neutralization by PGT-130, IC95 [27]: > 10 µg/mL; neutralization IC50 (pseudovirus) [27]: > 10 µg/mL; IC50, pseudovirus neutralization [28]: 0.947 µg/mL; Neutralization by PGT-130, IC50 [29]: 0.0346 µg/mL; Neutralization by PGT-130, IC80 [29]: 0.751 µg/mL; Neutralization by PGT-130, IC90 [29]: 5.72 µg/mL; Neutralization by PGT-130, IC95 [29]: > 10 µg/mL; neutralization IC50 (pseudovirus) [29]: 0.0346 µg/mL
5329_C19 (PGT-136) (antibody) |  | > 10 µg/mL | 0.0135 µg/mL | 0.0915 µg/mL | > 10 µg/mL | > 10 µg/mL | > 10 µg/mL | > 50 µg/mL | > 10 µg/mL | > 50 µg/mL | > 50 µg/mL | > 50 µg/mL | 0.073 µg/mL | 2.33 µg/mL | > 50 µg/mL | > 50 µg/mL | > 50 µg/mL | > 50 µg/mL | > 50 µg/mL | IC50, pseudovirus neutralization [28]: > 10 µg/mL
5343_B08 (PGT-135) (antibody) |  | 0.0433 µg/mL | 0.0183 µg/mL | 0.0139 µg/mL | > 10 µg/mL | 2.16 µg/mL | > 10 µg/mL | > 50 µg/mL | > 10 µg/mL | > 50 µg/mL | 3.67 µg/mL | 0.068 µg/mL | 0.03 µg/mL | 0.067 µg/mL | > 50 µg/mL | > 50 µg/mL | > 50 µg/mL | > 50 µg/mL | > 50 µg/mL | IC50, pseudovirus neutralization [28]: > 10 µg/mL
5345_I01 (PGT-137) (antibody) |  |  |  |  |  |  |  | > 50 µg/mL |  | > 50 µg/mL | > 50 µg/mL | 0.092 µg/mL | 9.35 µg/mL | 0.005 µg/mL | > 50 µg/mL | > 50 µg/mL | > 50 µg/mL | > 50 µg/mL | > 50 µg/mL | 
PGV04 (antibody) | 0.056 µg/mL |  |  |  |  |  |  |  |  |  |  |  |  |  |  |  |  |  |  | IC50 [37]: 0.553 µg/mL; IC50 (µg/mL), pseudovirus neutralization [16]: 0.201 µg/mL
VRC01 (antibody) | 0.056 µg/mL |  |  |  |  |  |  | 0.187 µg/mL |  | 0.163 µg/mL |  |  |  |  |  |  |  |  |  | IC50 [26]: 0.056 µg/mL; IC50 [23]: 1.08 µg/mL; IC50 [25]: 0.392 µg/mL

— US20250320281A1
